Literature values as cited in patent US20080089848A1, “INTRATHECAL INJECTION OF MICROBUBBLES” (priority 2006, published 2008).

B1: tPA: thrombolytic agent (protein, UniProt P00750 36-562, looked up)
Tissue-type plasminogen …: SYQVICRDEKTQMIYQQHQSWLRPVLRSNRVEYCWCNSGRAQCHSVPVKSCSEPRCFNGGTCQQALYFSDFVCQCPEGFAGKCCEIDTRATCYEDQGISYRGTWSTAESGAECTNWNSSALAQKPYSGRRPDAIRLGLGNHNYCRNPDRDSKPWCYVFKAGKYSSEFCSTPACSEGNSDCYFGNGSAYRGTHSLTESGASCLPWNSMILIGKVYTAQNPSAQALGLGKHNYCRNPDGDAKPWCHVLKNRRLTWEYCDVPSCSTCGLRQYSQPQFRIKGGLFADIASHPWQAAIFAKHRRSPGERFLCGGILISSCWILSAAHCFQERFPPHHLTVILGRTYRVVPGEEEQKFEVEKYIVHKEFDDDTYDNDIALLQLKSDSSRCAQESSVVRTVCLPPADLQLPDWTECELSGYGKHEALSPFYSERLKEAHVRLYPSSRCTSQHLLNRTVTDNMLCAGDTRSGGPQANLHDACQGDSGGPLVCLNDGRMTLVGIISWGLGCGQKDVPGVYTKVTNYLDWIRDNMRP
B2: BMP-7: bone morphogenetic protein (protein, UniProt P18075 293-431, looked up)
Bone morphogenetic protein 7: STGSKQRSQNRSKTPKNQEALRMANVAENSSSDQRQACKKHELYVSFRDLGWQDWIIAPEGYAAYYCEGECAFPLNSYMNATNHAIVQTLVHFINPETVPKPCCAPTQLNAISVLYFDDSSNVILKKYRNMVVRACGCH

How the values were obtained:
[1] = infusion of tPA and microbubbles
stroke = settings: intracisternal injection into the cisterna magna, rats

| Molecule | clot lysis [1] | functional recovery of neurons after stroke (stroke) |
| --- | --- | --- |
| B1 | accelerate clot lysis |  |
| B2 |  | promotes functional recovery |
